In patent US8691772B2, “HSP60, HSP60 peptides and T cell vaccines for immunomodulation” (Yeda Research and Development Co. Ltd., priority 2005, dated 2014):

Experiments:
[1] = tested on: T-bet and GATA-3; experiment: T-bet and GATA-3 expression in human T cells; format: cell-based
Experimental: (§1) Western blot analysis of T-cell nuclear extracts. Purified T cells (5×10^6) were preincubated with different concentrations of HSP60 for the indicated periods of time (37° C. in a 7% CO2, humidified atmosphere). […] T cells were lysed in 10 mM HEPES, 1.5 mM MgCl2, 1 mM dithiothreitol (DTT), 1 mM PMSF, 0.5% Nonidet P-40. The lysates were incubated on ice for 10 min and centrifuged at 2000 rpm for 10 min at 4° C. The supernatants (cytoplasmic extracts) were transferred and the pellet (nuclei) was suspended in buffer containing 30 mM HEPES, 450 mM NaCl, 25% Glycerol, 0.5 mM EDTA, 6 mM DTT, 12 mM MgCl2 1 mM PMSF, 10 μg/ml leupeptin, 10 μg/ml pepstatin, 1% phosphatase inhibitor cocktail, and the suspension was incubated on ice for 30 min. The lysates were cleared by centrifugation (30 min, 14×10^3 rpm, 4° C.), and the resulting supernatants analyzed for protein content. For NFATp analysis nuclear extracts were prepared with a NE-PER Nuclear and Cytoplasmic Extraction reagent (Pierce, Rockford, Ill.) according to the manufacturer's protocol. Sample buffer was then added and, after boiling, the samples, containing equal amounts of proteins, were separated on 10% SDS-PAGE gel and transferred to nitrocellulose membranes. The membranes were blocked with TBST buffer containing low-fat milk (5%), Tris pH 7.5 (20 mM), NaCl (135 mM) and Tween 20 (0.1%), and probed with the following mAb in the same buffer: anti-NF-κb (diluted 1:1000), anti-total (t) ERK (diluted 1:20,000), anti-NFATp (diluted 1:500), anti T-bet (diluted 1:1000), anti-GATA-3 (diluted 1:1000), anti-Lamin B (diluted 1:1000). Immunoreactive protein bands were visualized using labeled secondary antibodies and the enhanced ECL system.

[2] = tested on: SOCS3; experiment: SOCS3 expression in mouse lymphocytes / T cells (immunoblot); format: cell-based; details: for SOCS3 expression: 1 ng/ml, 1 hr
Excerpt: Mice and mouse T cells. Female C57BL/6J were obtained from Harlan Olac (Bicester, U.K.). TLR2-knockout mice on the C57BL/6J background were kindly provided by Dr. S. Akira (Osaka University, Osaka, Japan). CD3^+ T cells were isolated by negative selection with anti-mouse antibody cocktail (Pan T cell kit; Miltenyi Biotec; CITY Germany). The labeled cells were then passed through separation columns (MidiMACS columns, Miltenyi Biotec). The purified cells (>97% T cells) were untreated or treated with HSP60 as described. Similarly, T cells were purified from the lymph nodes of BALB/c mice (females, 1.5 months of age).
Western blotting of T-cell lysates. T cells were incubated (24 hr, 37° C.) in starvation medium (RPMI medium without serum). Aliquots (5×10^6/sample) of the starved cells were preincubated (for various intervals) with different concentrations of HSP60 prior to exposure to SDF-1α (100 ng/ml, 10 min, 37° C., tissue culture conditions). These reactions were terminated by freezing the plates (−70° C., 10 min). The plates were thawed, and the cells solubilized by incubating (60 min, 4° C.) in lysis buffer [EDTA (0.5 mM), NaCL (150 mM), NaF (10 nM), Tris pH 7.5 (25 mM), Triton X-100 (1%), PMSF (200 pg/ml), and phosphatase inhibitor cocktail (1%)]. Lysates were cleared by centrifugation (30 min, 14×10^3 rpm, 4° C.), and the resulting supernatants analyzed for protein content. Sample buffer was added, the samples were boiled, and equal amounts of proteins were separated by 10% SDS-PAGE and transferred to nitrocellulose membranes. […] Phosphorylation levels of the 3-5 independent experiments were estimated by densitometry, and an average percentage of phosphorylation±SD was calculated as OD of pERK/tERK, or pPyk2/tPyk2, or pAKT/tAKT, pMLC/tMLC, or pSTAT3/tSTAT3×100%.

[3] = tested on: ERK, Pyk2, AKT, MLC; experiment: Western blotting of T-cell lysates (phosphorylation) and cell morphology; format: cell-based, human
Experimental: Western blotting of T-cell lysates. T cells were incubated (24 hr, 37° C.) in starvation medium (RPMI medium without serum). Aliquots (5×10^6/sample) of the starved cells were preincubated (for various intervals) with different concentrations of HSP60 prior to exposure to SDF-1α (100 ng/ml, 10 min, 37° C., tissue culture conditions). These reactions were terminated by freezing the plates (−70° C., 10 min). The plates were thawed, and the cells solubilized by incubating (60 min, 4° C.) in lysis buffer [EDTA (0.5 mM), NaCL (150 mM), NaF (10 nM), Tris pH 7.5 (25 mM), Triton X-100 (1%), PMSF (200 pg/ml), and phosphatase inhibitor cocktail (1%)]. Lysates were cleared by centrifugation (30 min, 14×10^3 rpm, 4° C.), and the resulting supernatants analyzed for protein content. Sample buffer was added, the samples were boiled, and equal amounts of proteins were separated by 10% SDS-PAGE and transferred to nitrocellulose membranes. The membranes were blocked with TBST buffer [Tris pH 7.5 (20 mM), NaCl (135 mM) and Tween 20 (0.1%)] containing low-fat milk (5%), and probed with the following mAb in the same buffer: anti-phosphorylated (p) ERK (0.2 μg/ml), anti-total (t) ERK (diluted 1:20,000), anti-pPyk2 (1.5 μg/ml), anti-tPyk2 (0.2 μg/ml), anti-pAKT (diluted 1:1000), anti-tAKT (diluted 1:1000), anti-pMLC (diluted 1:250), and anti-tMLC (diluted 1:1000), anti-pSTAT3 (diluted 1:250), and anti-STAT3 (diluted 1:500). Immunoreactive protein bands were visualized using a horseradish peroxidase-conjugated goat anti-mouse Ab and the enhanced ECL system. Phosphorylation levels of the 3-5 independent experiments were estimated by densitometry, and an average percentage of phosphorylation±SD was calculated as OD of pERK/tERK, or pPyk2/tPyk2, or pAKT/tAKT, pMLC/tMLC, or pSTAT3/tSTAT3×100%.
Cell morphology. T cells (3×10^6 cells/ml) were seeded in flat-bottom, 24-well plates in 500 μl of RPMI on coverslips coated with FN (25 μg/ml). Some T cells were pretreated (1 hr, 37° C., in a 7.5% CO2 humidified atmosphere) with anti-TLRs mAb (20 μg/ml), and then with HSP60 (1 hr). After which, SDF-1α (200 ng/ml) was added, and the cells allowed to adhere (30 min, 37° C., in a 7.5% CO2 humidified atmosphere). The cells were then fixed in 3.7% paraformaldehyde and permeabilized (5 min, room temperature) with 0.5% TritonX-100. For actin visualization, cells were stained with rhodamine-labeled phalloidin (diluted 1/100), and examined with a laser-scanning confocal microscope (LSM510, Zeiss).

[4] = tested on: T-bet and GATA-3; experiment: T-bet and GATA-3 expression in oxazolone-reactive mouse T cells; format: cell-based; details: 1 ng/ml for 2 hr
Experimental: as §1, with “The membranes were blocked with TBST buffer containing low-fat milk (5%), Tris pH 7.5 (20 mM), NaCl (135 mM) and Tween 20 (0.1%), and probed with the following mAb in the same buffer: anti-NF-κb (diluted 1:1000), anti-total (t) ERK (diluted 1:20,000), anti-NFATp (diluted 1:500), anti T-bet (diluted 1:1000), anti-GATA-3 (diluted 1:1000), anti-Lamin B (diluted 1:1000). Immunoreactive protein bands were visualized using labeled secondary antibodies and the enhanced ECL system.” left out

[5] = tested on: human T cells; experiment: Cytokine secretion of anti-CD3-activated purified human T cells
Experimental: Human T cells. T cells were purified from the peripheral blood of healthy human donors (Blood Bank; Tel-Hashomer, Israel). The whole blood was incubated (20 min, 22° C.) with RosetteSep™ human T-cell enrichment cocktail (StemCell Technologies, Vencouver, BC, Canada). The remaining unsedimented cells were then loaded onto Lymphocyte Separation Medium (ICN Biomedicals; Belgium), isolated by density centrifugation, and washed with PBS. The purified cells (>95% CD3^+ T cells) so obtained were cultured in RPMI containing antibiotics and 10% heat-inactivated FCS.
Cytokine secretion. T cells (2×10^6 cells per ml) were activated (1 hr, 37° C.) with the indicated concentrations of HSP60 in 24-well plates in RPMI containing 10% heat-inactivated FCS. The cells were then washed and re-plated at the same concentration on anti-CD3 mAb pre-coated 24-well plates (0.5 μg/ml; non tissue culture grade plates) in serum free medium containing 0.1% BSA at 4° C. for 24 hr. The supernatants were collected, and the cytokine content (TNF-α, IFN-γ, and IL-10) was determined by ELISA, using the appropriate mAb, according to the manufacturer's instructions.

[6] = 1 ng/ml and 1 μg/ml, no anti-CD3
[7] = human T cells, SDF-1α 100 ng/ml, 10 min

B1: HSP60: recombinant human heat shock protein 60 (StressGen Biotechnologies) (protein)
chain: AKDVKFGADARALMLQGVDLLADAVAVTMGPKGRTVIIEQSWGSPKVTKDGVTVAKSIDLKDKYKNIGAKLVQDVANNTNEEAGDGTTTATVLARSIAKEGFEKISKGANPVEIRRGVMLAVDAVIAELKKQSKPVTTPEEIAQVATISANGDKEIGNIISDAMKKVGRKGVITVKDGKTLNDELEIIEGMKFDRGYISPYFINTSKGQKCEFQDAYVLLSEKKISSIQSIVPALEIANAHRKPLVIIAEDVDGEALSTLVLNRLKVGLQVVAVKAPGFGDNRKNQLKDMAIATGGAVFGEEGLTLNLEDVQPHDLGKVGEVIVTKDDAMLLKGKGDKAQIEKRIQEIIEQLDVTTSEYEKEKLNERLAKLSDGVAVLKVGGTSDVEVNEKKDRVTDALNATRAAVEEGIVLGGGCALLRCIPALDSLTPANEDQKIGIEIIKRTLKIPAMTIAKNAGVEGSLIVEKIMQSSSEVGYDAMAGDFVNMVEKGIIDPTKVVRTALLDAAGVASLLTTAEVVVTEIPKEEKDPGMGAMGGMGGGMGGGMF
[1]; 1 ng/ml and 1 μg/ml, 1 hr pre-treatment
  T-bet expression induced by anti-CD3: significantly (P<0.05) inhibited the T-bet expression induced by the anti-CD3
[1]; [6]
  protein level of GATA-3: significantly (P<0.01) up-regulated the protein level of GATA-3
  protein level of T-bet: but not of T-bet
[1]; 1 hr pre-incubation
  GATA-3 expression with anti-CD3: significantly up-regulated the expression level of GATA-3
[2]; BALB/c lymph node cells
  expression of SOCS3: induced the expression of SOCS3 in BALB/c lymph node cells
[2]; T cells from TLR2-knockout mice
  SOCS3 expression: SOCS3 expression remained at the low levels of untreated cells
[2]; wild type C57BL/6J-derived T cells
  SOCS3 expression: induced SOCS3 expression at levels similar to those induced by HSP60 in human T cells
[3]; FN-coated coverslips, HSP60 1 μg/ml
  SDF-1α-induced polarized morphology: inhibits
[3]; HSP60 1 hr then SDF-1α 100 ng/ml, 10 min
  SDF-1α-induced phosphorylation of MLC: inhibits SDF-1α-induced phosphorylation of MLC
[3]; HSP60 1 hr, no SDF-1α
  phosphorylation of MLC: induces phosphorylation of MLC
[3]; [7]
  SDF-1α-induced AKT phosphorylation: inhibits
  SDF-1α-induced ERK phosphorylation: inhibits
  SDF-1α-induced Pyk2 phosphorylation: inhibits
[4]
  GATA-3 expression: up-regulation of GATA-3 expression
  T-bet expression: down-regulation of T-bet
[5]
  effect on cytokine secretion at doses in the order of 10 ng/ml: did not appear to affect cytokine secretion
  secretion of IL-4 and IL-13: increases the secretion
[5]; HSP60 alone
  cytokine secretion without anti-CD3: did not induce cytokine secretion from the T cells
[5]; P<0.05
  higher concentrations at which cytokine secretion was again affected: 0.1 to 1 µg/mL
  low concentrations with significant effects on cytokine secretion: 0.1 to 1.0 ng/mL
